# Assay: yeast display, Sf9 membrane polyspecificity reagent, FACS + sequencing; frameworks hold sequencing errors
# Method in brief: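 Nanobodies from a synthetic yeast display library (Saccharomyces cerevisiae BJ5465), induced 36–48 hours with galactose, were stained 1 hour at 4 °C with 10% biotinylated, detergent-solubilized Sf9 membrane reagent, enriched on streptavidin microbeads, then FACS-sorted. Anti-HA (expression) and streptavidin (reagent binding) fluorescence set low and high (top ~1%) gates. Polyreactivity labels come from the gate of origin. Genes were colony-PCR amplified, MiSeq 2 × 250 sequenced and filtered by CDR length.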
row,Sequence,polyreactivity (PSR sort gate)
1,QVQLVESGGGLVQAGGSLRLSCAASGRTFVDYDMGWYRQAPGKERELVADINSGGSAYYADSVKGRFTISRDNAKNTVYLQMNSLKPEDTAVYYCAASYYGDNKYDYWGQGTQVTVSS,high polyreactivity
2,QVQLVESGGGLVQAGGSLRLSCAASGRTFVFNAMGWYSPAPGKERDLVAGISGSGGSTYYADSVKGRFTISRDNAKNTVYLQMNSLKPEDTAVYYCATKFPRKELDQDSVSGLGYWGLGTQVTVSS,low polyreactivity
3,QVQLVESGGGLVQAGGSLRLSCAASGRTFVFYGMGWYRQAPGKEREFVAAITRRGGSTYYADSVKGRFTISRDNAKNTVYLQMNSLKPEDTAVYYCAAGYSSRYRGGLDYWGQGTQVTVSS,high polyreactivity
4,QVQLVESGGGLVQAGGSLRLSCAASGRTFVIYVMGLYRQAPGKERELVARISGSDGGTYYADSVKGRFTISRDNAKNTVYLQMNSLKPEDTAVYYCATARYPVAGLMDYWGQGTQVTVSS,low polyreactivity
5,QVQLVESGGGLVQAGGSLRLSCAASGRTFVKNAMGWYIQAPGKERELVAAISYRGGSTYYADSVKGRFTISRDNAKNTVYLQMNSLKPEDTAVYYCAAQYLYYRYGGFGYWGQGTQVTVSS,high polyreactivity
6,QVQLVESGGGLVQAGGSLRLSCAASGRTFVLYAMGWYRQAPGKERELVAAIRQSDVSTYYADSVKGRFTISRDNAKNTVFLQMNSLKPEDTAVFYCAARNRYRRRYYYWGQGTQVTVSS,high polyreactivity
7,QVQLVESGGGLVQAGGSLRLSCAASGRTFVNNAMGRYREAPGKERELVAAITTSAGSTYYADSVKGRFTISRDNAKNTVYLQMNSLNPEDTAVYYCAAVVWKKRYFDLEYWGQGTQVTVSS,low polyreactivity
8,QVQLVESGGGLVQAGGSLRLSCAASGRTFVNNAMGWYRQAPGKERELVASIRYIGGSTYYADSVKGRFTISRDNEKNTVYLQMNSLKPEDTAVYYCAALAGRRPYDYWGQGTQVTVSS,high polyreactivity
9,QVQLVESGGGLVQAGGSLRLSCAASGRTFVNYAMGWYRQAPGKERELVAAISGGGGTNYADSVKGRFTISRDNAKNTVYLQMNSLKPEDTAVYYCAADTNGYEFDYWGQGTQVTVSS,low polyreactivity
10,QVQLVESGGGLVQAGGSLRLSCAASGRTFVPNAMGWYRQAPGKERELVAAISWSGDSTYYADSVKGRFTISRDNAKNTVYLQMNSLKPEDTAVYYCAARYEFFYKAFDVDSWGQGTQVTVSS,low polyreactivity
11,QVQLVESGGGLVQAGGSLRLSCAASGRTFVPYAMGWYRQAPGKERELVAAINSGTRTYADSVKGRFTISRDNAKNTVYLQMNSLKPEDTAVYYCARRGYYYDYWGQGTQVTVSS,high polyreactivity
12,QVQLVESGGGLVQAGGSLRLSCAASGRTFVPYAMGWYRQAPGKERELVAAITWSGGRTRYADSVKGRFTISRDNAKNTVFLQMNSLKPEDTAVYYCARYYWLYSSSYDYWGQGTQVTVSS,high polyreactivity
13,QVQLVESGGGLVQAGGSLRLSCAASGRTFVPYAMGWYRQAPWKERELVASISSSGGSTYYADSVKGRFTISRDNAKNTVYLQMNSLKPEDTAVYYCATADRWSSSYYRSVRWYHYDYWGQGTQVTVSS,low polyreactivity
14,QVQLVESGGGLVQAGGSLRLSCAASGRTFVPYTMGWYRQAPGKERELVAAISRSGARTYYADSVKGRFTISRDNAKNTVYLQMNSLKPEDTAVYYCVVIARYGYDYWGQGTQVTVSS,high polyreactivity
15,QVQLVESGGGLVQAGGSLRLSCAASGRTFVQYAMGWYRQAPGKERELVAAISDRGGNTYYADSVKGRFTISRDNAKNTVYLQMNSLKPEDTAVYYCAAKIALDNDYWGQGTQVTVSS,high polyreactivity
16,QVQLVESGGGLVQAGGSLRLSCAASGRTFVRNAMGWYRQAPGKERELVAAITRSGGSTYYADSVKGRFTISRDNAKNTVYLQMNSLKPEDTAVYYCSARPPYRVGIVPLGRREYYWGQGTQVTVSS,high polyreactivity
17,QVQLVESGGGLVQAGGSLRLSCAASGRTFVRYAMGWYRQAPGKEREFVAAISWSTGSTYFADSVKGRFTISRDNAKNTVYLQMNSLKPEDTAVYYCAADGYTTYWLLYEYDYWGQGTQVTVSS,low polyreactivity
18,QVQLVESGGGLVQAGGSLRLSCAASGRTFVRYAMGWYRQATGNERELVAAISTSGGNTYYADSVKGRFSISRDNAKNTVYLQMNSLKPEDTAVYYCANDRGPNAKFDDWGQGTQVTVSS,low polyreactivity
19,QVQLVESGGGLVQAGGSLRLSCAASGRTFVSNAMGWYRQAPGKERELVAGINWTDDSTYYADSVKGRFTISRDNAKNTVYLQMNSLKPEDTAVYYCAADSWEFAWPRFDYWGQGTQVTVSS,low polyreactivity
20,QVQLVESGGGLVQAGGSLRLSCAASGRTFVSTAMGWYRQAPGKERELVAGMSQRGGSTYYADSVKGRFTISRDNAKNTVYLHMNSMKPEDTAVYYCNAVSRAYFYGAYGPYTRFNYWGQGTQVTVSS,high polyreactivity
21,QVQLVESGGGLVQAGGSLRLSCAASGRTFVSYAMGWYRQAPGKERELVAAISSSGGSTYYADSVKGRFTISRDNAKNTVYLQMNSLKPEDTAVYYCAADTTTRAYVEMDYWGQGTQVTVSS,low polyreactivity

row,Sequence,polyreactivity (PSR sort gate)
1,QVQLVESGGGLVQAGGSLRLSCAASGRTFVSYDMGWYRQAPGKERELVATISWTAGSTYYADSVKGRFTISRDNAKNTVYLQMNSLKPEDTAVYYCAADVFYSIYDYWGQGTQVTVSS,low polyreactivity
2,QVQLVESGGGLVQAGGSLRLSCAASGRTFVVNAKGWYRQAPGKEREFVAAISYRGDSTYYSDSVKGRFTISRDNAKNTVYLQMNSLKPEDTAVYYCAARVLGPGRRFYYWVQGTQVTVSS,high polyreactivity
3,QVQLVESGGGLVQAGGSLRLSCAASGRTFVVNDMGWYRQAPGKERELVAAINYNAGSTFYADSVKGRFTISRYNAKKTVYYQMNSLKPEDTAVYYCATDVYGYVEYDYWGQGTQVTVSS,low polyreactivity
4,QVQLVESGGGLVQAGGSLRLSCAASGRTFVYNAMGWYRQAPGKEREFVAAISDGGGDTYYADSVKGRFTISRDNAKNTVYLQMNSLKPEDTAVYYCNVEWQQPGYAFDYWGQGTQVTVSS,low polyreactivity
5,QVQLVESGGGLVQAGGSLRLSCAASGRTFVYNAMGWYRQAPGKERELVAAISFGGGNTYYADSVKGRFTISRDNAKNTVYLQMNSLKPEDTAVYYCAKAYIGYWGASWYYAYDYWGQGTQVTVSS,low polyreactivity
6,QVQLVESGGGLVQAGGSLRLSCAASGRTFVYNAMGWYRQAPGKERELVAAITTNGGSTYYADSVKGRFTISRDNSKNTVYLQMNSLKPEDTAVYYCAADYSLPWSWLYEYWGQGTQVTVSS,low polyreactivity
7,QVQLVESGGGLVQAGGSLRLSCAASGRTFVYNGMGSYRQAPGKERELVAAISGSGGSTYYADSVKGRFTISRDNAKNTVYLQMNSLKPEDTAVYYCATRQGYRLYYWGQGTQVTVSS,high polyreactivity
8,QVQLVESGGGLVQAGGSLRLSCAASGRTFVYNTMGWYRQAPGKERELVASISSTGGNTYYSDSVKGRFTISRDNAKNTVYLQMNSLKPEDTAVYYCAAGAWTRGQYYYWGQRTQVTVSS,high polyreactivity
9,QVQLVESGGGLVQAGGSLRLSCAASGRTFVYYAMGWYRQAPGKEREFVAAISRSGGRTSYADSVKGRFTISRDNAKNTVYLQMNSLKPEDTAVYYCAAEKRTQPTSREYYWVQGTQVTVSS,high polyreactivity
10,QVQLVESGGGLVQAGGSLRLSCAASGRTFVYYAMGWYRQAPGKERELVARISYSGGSTYYADSVKGRFTISRDNAKKTVYLQMNSLKPEDTAVYYCSQAGYSPVYGYWGQGTQVSVSS,high polyreactivity
11,QVQLVESGGGLVQAGGSLRLSCAASGRTFVYYAMGWYRQAPGKERELVASISSVGTTKYADSVQGRFTISRANAKNTVYLQMNSLKPEDTAVYYCAAVPLSRNIFDSWGQGTQVTVSS,low polyreactivity
12,QVQLVESGGGLVQAGGSLRLSCAASGRTFVYYDMGWSRPAPGKERELVAAIDSSGSTYYADSVKGRFTISRDNAKNTVYLQMNSLKPEDTAVYYCAAGYWFFPYWYDYWGQGTQVTVSS,high polyreactivity
13,QVQLVESGGGLVQAGGSLRLSCAASGRTFWANAMGWYRPAPGKERELVAAITIGGRTYYADSVKGRFTISRDNAKNTVYLQMNSLKPEDTAVYYCNAGTRRPFPAESGYWGQVTQVTVSS,low polyreactivity
14,QVQLVESGGGLVQAGGSLRLSCAASGRTFWAYAMGWYRPAPGKERELVSAITTSGGSTNYADSVKGRFTISRDNAKNTVYLHMIRLKPEDTAVYYCNADPTYHVVNGVGYWGQGTQVTVSS,low polyreactivity
15,QVQLVESGGGLVQAGGSLRLSCAASGRTFWDYAMGWYRQAPGKEREFVAAINTSGGRTYYADSVKGRFTISRDNAKNTVYLQMNSLKPEDTAVYYCAARTRDRAYDSWGQGTQVTVSS,high polyreactivity
16,QVQLVESGGGLVQAGGSLRLSCAASGRTFWFYGMGWYREAAGKEREFVARISGSGGSTYYADSVKGRFTISRDNAKNTVYLQMNSLKPEDTAVYYCAKDNRYPYPSGLDYWGQGTQVTVSS,high polyreactivity
17,QVQLVESGGGLVQAGGSLRLSCAASGRTFWGYAMGWYRQAPGKERELVATISSTGSTNYAESVKGRFTISRDNAKNTVYFQMNSLKPEATAVYYCNAKRHVYRGWYQRYDYWGQGTQVTVSS,high polyreactivity
18,QVQLVESGGGLVQAGGSLRLSCAASGRTFWINAMGWYRQAPGKERELVAAITRGGRTYADSVKGRFTISRDNAKYTVYLQMNSLKPEDTAVYYCAAESYRLSGHHGYDYWGQCTQVTVSS,high polyreactivity
19,QVQLVESGGGLVQAGGSLRLSCAASGRTFWIYAMGWYRQAPGKEREFVAAISSSGGGTYYADSVKGRFTISRDNAKNTVYLQMNSLKPEDTAVYYCAADDGYSSNEFDYWGQGTQVTVSS,low polyreactivity
20,QVQLVESGGGLVQAGGSLRLSCAASGRTFWIYAMGWYRQAPGKEREFVAAISSSGGGTYYADSVKGRFTISRDNAKNTVYLQMNSLKPEDTAVYYCAKDLYFSKGYYWGQGTQVTVSS,low polyreactivity

# From the nanobody polyreactivity screen of Harvey et al. (2022)
